Source: US6465618

B1: His-MKK7 (protein)
chain: AASSLEQKLSRLEAKLKQENREARRRIDLNLDISPQRPRPIIVITLSPAPAPSQRAALQLPLANDGGSRSPSSESSPQHPTPPTRPRHMLGLPSTLFTPRSMESIEIDQKLQEIMKQTGYLTIGGQRYQAEINDLENLGEMGSGTCGQVWKMRFRKTGHIIAVKQMRRSGNKEENKRILMDLDVVLKSHDCPYIVQCFGTFITNTDVFIAMELMGTCAEKLKKRMQGPIPERILGKMTVAIVKALYYLKEKHGVIHRDVKPSNILLDERGQIKLCDFGISGRLVDSKAKTRSAGCAAYMAPERIDPPDPTKPDYDIRADVWSLGISLVELATGQFPYKNCKTDFEVLTKVLQEEPPLLPGHMGFSGDFQSFVKDCLTKDHRKRPKYNKLLEHSFIKHYEILEVDVASWFKDVMAKTESPRTSGVLSQHHLPFFSGSLEESPTSPPSPKSFPLSPAIPQAQAEWVSGR
B2: GST-SEK1 (protein)
chain: MAAPSPSGGGGSGGGGGTPGPIGPPASGHPAVSSMQGKRKALKLNFANPPVKSTARFTLNPNTTGVQNPHIERLRTHSIESSGKLKISPEQHWDFTAEDLKDLGEIGRGAYGSVNKMVHKPSGQIMAVKRIRSTVDEKEQKQLLMDLDVVMRSSDCPYIVQFYGALFREGDCWICMELMSTSFDKFYKYVYSVLDDVIPEEILGKITLATVKALNHLKENLKIIHRDIKPSNILLDRSGNIKLCDFGISGQLVDSIAKTRDAGCRPYMAPERIDPSASRQGYDVRSDVWSLGITLYELATGRFPYPKWNSVFDQLTQVVKGDPPQLSNSEEREFSPSFINFVNLCLTKDESKRPKYKELLKHPFILMYEERTVEVACYVCKILDQMPATPSSPMYVD
B3: His-MKK6 (protein)
chain: MSQSKGKKRNPGLKIPKEAFEQPQTSSTPPRDLDSKACISIGNQNFEVKADDLEPIMELGRGAYGVVEKMRHVPSGQIMAVKRIRATVNSQEQKRLLMDLDISMRTVDCPFTVTFYGALFREGDVWICMELMDTSLDKFYKQVIDKGQTIPEDILGKIAVSIVKALEHLHSKLSVIHRDVKPSNVLINALGQVKMCDFGISGYLVDSVAKTIDAGCKPYMAPERINPELNQKGYSVKSDIWSLGITMIELAILRFPYDSWGTPFQQLKQVVEEPSPQLPADKFSAEFVDFTSQCLKKNSKERPTYPELMQHPFFTLHESKGTDVASFVKLILGD
B4: activated GST-MKK7 (protein)
chain: AASSLEQKLSRLEAKLKQENREARRRIDLNLDISPQRPRPIIVITLSPAPAPSQRAALQLPLANDGGSRSPSSESSPQHPTPPARPRHMLGLPSTLFTPRSMESIEIDQKLQEIMKQTGYLTIGGQRYQAEINDLENLGEMGSGTCGQVWKMRFRKTGHVIAVKQMRRSGNKEENKRILMDLDVVLKSHDCPYIVQCFGTFITNTDVFIAMELMGTCAEKLKKRMQGPIPERILGKMTVAIVKALYYLKEKHGVIHRDVKPSNILLDERGQIKLCDFGISGRLVDSKAKTRSAGCAAYMAPERIDPPDPTKPDYDIRADVWSLGISLVELATGQFPYKNCKTDFEVLTKVLQEEPPLLPGHMGFSGDFQSFVKDCLTKDHRKRPKYNKLLEHSFIKRYETLEVDVASWFKDVMAKTESPRTSGVLSQPHLPFFR

Experiments:
[1] = target: T1, His-SAPK3, O08911
T1 chain: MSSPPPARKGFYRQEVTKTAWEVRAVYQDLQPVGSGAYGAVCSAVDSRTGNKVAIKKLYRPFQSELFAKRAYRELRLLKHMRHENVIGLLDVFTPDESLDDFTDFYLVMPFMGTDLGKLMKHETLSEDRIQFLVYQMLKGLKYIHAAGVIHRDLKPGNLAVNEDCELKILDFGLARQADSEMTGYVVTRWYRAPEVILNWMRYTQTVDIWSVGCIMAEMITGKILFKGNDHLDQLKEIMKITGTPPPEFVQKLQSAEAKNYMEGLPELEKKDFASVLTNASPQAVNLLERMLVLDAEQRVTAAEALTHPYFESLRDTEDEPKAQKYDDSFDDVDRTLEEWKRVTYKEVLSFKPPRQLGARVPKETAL

[2] = target: His-SAPKα, Q9WTU6
[3] = target: His-p38, P47811
Sequence of His-p38, P47811 (P47811 whole entry): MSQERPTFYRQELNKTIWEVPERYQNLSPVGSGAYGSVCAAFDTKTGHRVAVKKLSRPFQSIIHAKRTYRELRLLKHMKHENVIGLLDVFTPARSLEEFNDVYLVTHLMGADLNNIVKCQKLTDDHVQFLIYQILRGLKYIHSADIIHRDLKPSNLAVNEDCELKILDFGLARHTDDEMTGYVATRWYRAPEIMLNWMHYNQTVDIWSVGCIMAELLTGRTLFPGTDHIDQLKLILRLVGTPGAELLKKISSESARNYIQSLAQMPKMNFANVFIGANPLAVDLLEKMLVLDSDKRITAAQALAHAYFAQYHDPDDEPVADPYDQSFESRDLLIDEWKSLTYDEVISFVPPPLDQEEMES

[4] = target: GST-JNK1, P45983
Sequence of GST-JNK1, P45983 (P45983 other isoform, or with tags, fused parts or gaps): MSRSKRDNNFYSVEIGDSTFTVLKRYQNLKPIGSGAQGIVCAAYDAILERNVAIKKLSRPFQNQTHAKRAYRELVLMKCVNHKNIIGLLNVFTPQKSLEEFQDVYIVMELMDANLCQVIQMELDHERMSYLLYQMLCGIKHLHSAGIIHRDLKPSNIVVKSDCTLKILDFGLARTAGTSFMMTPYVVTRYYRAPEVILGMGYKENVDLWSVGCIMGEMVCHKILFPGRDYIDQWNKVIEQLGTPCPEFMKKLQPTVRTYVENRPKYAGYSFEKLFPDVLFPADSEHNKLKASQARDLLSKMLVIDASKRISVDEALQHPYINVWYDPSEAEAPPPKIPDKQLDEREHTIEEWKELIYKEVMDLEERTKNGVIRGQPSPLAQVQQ

Row | Protein | activation of the MAP kinase in vitro (32P phosphorylation of MBP, SDS-PAGE and autoradiography) [1] | activation of the MAP kinase in vitro (32P phosphorylation of GST-cJun, SDS-PAGE and autoradiography) [2] | activation of the MAP kinase in vitro (32P phosphorylation of ATF-2, SDS-PAGE and autoradiography) [3] | phosphorylation (activation) of JNK1 in vitro, dot blot with anti-activated JNK antibody [4]
1 | B1 | did not activate p38 and SAPK3 | specifically activated SAPK, leading to the phosphorylation of c-Jun | did not activate p38 and SAPK3 | 
2 | B2 | activated all of SAPK, p38 and SAPK3 | activated all of SAPK, p38 and SAPK3 | activated all of SAPK, p38 and SAPK3 | 
3 | B3 | activated p38 and SAPK3 | did not activate SAPK | activated p38 and SAPK3 | 
4 | B4 |  |  |  | the activity of MKK7 was confirmed by the presence of activated JNK1
